As a reminder, the IC50 is the concentration that gives 50% inhibition.

Assay [1] deals with T1, Soluble human FGFR4/KLB receptor complex (FGFR4 ectodomain-Fc with soluble KLB) (human, UniProt P22455 22-369; Q86Z14 1-996).
T1 construct: human FGFR4 ectodomain fused to Fc, coupled to Protein A acceptor beads; human beta-Klotho (KLB) protein, called human soluble KLB; also called hFGFR4/KLB; source: bought: R&D Systems (both chains)
T1 sequence (looked up) 1: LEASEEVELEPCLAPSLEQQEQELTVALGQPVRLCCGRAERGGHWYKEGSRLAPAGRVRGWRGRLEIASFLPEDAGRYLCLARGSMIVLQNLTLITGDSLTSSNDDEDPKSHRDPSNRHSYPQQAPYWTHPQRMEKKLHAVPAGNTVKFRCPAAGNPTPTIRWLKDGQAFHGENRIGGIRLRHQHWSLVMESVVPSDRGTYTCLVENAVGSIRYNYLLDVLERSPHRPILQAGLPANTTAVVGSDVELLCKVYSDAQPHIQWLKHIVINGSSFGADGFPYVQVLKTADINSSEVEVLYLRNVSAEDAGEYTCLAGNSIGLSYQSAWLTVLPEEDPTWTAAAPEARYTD
T1 sequence (looked up) 2: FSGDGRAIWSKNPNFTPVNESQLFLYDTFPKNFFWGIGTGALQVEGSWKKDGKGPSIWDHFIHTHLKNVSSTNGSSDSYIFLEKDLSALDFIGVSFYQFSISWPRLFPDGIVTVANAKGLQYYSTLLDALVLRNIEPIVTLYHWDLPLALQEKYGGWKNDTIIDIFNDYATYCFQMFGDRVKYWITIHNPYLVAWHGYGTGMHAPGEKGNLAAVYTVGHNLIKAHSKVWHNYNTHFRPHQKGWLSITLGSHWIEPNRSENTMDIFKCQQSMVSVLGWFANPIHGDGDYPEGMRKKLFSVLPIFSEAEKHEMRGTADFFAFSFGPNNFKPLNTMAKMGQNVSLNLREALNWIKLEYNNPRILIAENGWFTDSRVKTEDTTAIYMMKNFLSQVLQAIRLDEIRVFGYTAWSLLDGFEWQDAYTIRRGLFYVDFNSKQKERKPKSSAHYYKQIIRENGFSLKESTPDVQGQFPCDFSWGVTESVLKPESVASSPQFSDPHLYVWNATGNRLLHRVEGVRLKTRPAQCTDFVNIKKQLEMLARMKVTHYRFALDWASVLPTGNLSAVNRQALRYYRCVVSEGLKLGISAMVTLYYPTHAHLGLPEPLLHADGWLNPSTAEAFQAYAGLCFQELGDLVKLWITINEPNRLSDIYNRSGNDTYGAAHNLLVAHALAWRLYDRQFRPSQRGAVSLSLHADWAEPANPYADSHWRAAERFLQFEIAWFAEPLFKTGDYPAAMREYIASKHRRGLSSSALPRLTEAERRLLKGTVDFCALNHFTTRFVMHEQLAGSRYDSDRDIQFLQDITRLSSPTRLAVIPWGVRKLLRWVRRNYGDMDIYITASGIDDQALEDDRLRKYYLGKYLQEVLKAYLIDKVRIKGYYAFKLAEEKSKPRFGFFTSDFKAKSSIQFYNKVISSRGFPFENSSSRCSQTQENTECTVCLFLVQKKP
The experiment in a line: AlphaScreen or HTRF; cell-free competition: biotinylated FGF21 on streptavidin donor beads, FGFR1c-Fc or FGFR4-Fc ectodomain on Protein A acceptor beads, human soluble KLB added to give the signal; 5 μg/ml heparin, 0.1% BSA; increasing doses of unlabelled protein or peptide displace biotinylated FGF21. The conditions noted are these: both partners purified.

For assay [2], the target named is T2, Soluble human FGFR1c/KLB receptor complex (FGFR1c ectodomain-Fc with soluble KLB) (human, UniProt P11362 22-376; Q86Z14 1-996).
T2 construct: human FGFR1c ectodomain fused to Fc, coupled to Protein A acceptor beads; human beta-Klotho (KLB) protein, called human soluble KLB; also called FGFR1/KLB complex; soluble FGFR1/KLB receptor complex; source: bought: R&D Systems (both chains)
T2 sequence (looked up) 1: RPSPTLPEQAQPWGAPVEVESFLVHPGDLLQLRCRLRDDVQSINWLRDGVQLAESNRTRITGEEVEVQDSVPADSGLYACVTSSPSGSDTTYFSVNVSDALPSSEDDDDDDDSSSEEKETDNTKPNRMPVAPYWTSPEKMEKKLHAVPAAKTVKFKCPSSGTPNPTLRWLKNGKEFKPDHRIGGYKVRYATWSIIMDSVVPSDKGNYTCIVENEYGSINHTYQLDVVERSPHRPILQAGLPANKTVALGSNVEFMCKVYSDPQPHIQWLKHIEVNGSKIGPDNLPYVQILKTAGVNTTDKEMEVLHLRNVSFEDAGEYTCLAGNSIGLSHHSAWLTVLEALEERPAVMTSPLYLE
T2 sequence (looked up) 2: T1 sequence (looked up) 2
The description is as above. The conditions noted are these: both partners purified.

B1: Human FGF21 (1-181) (ligand, UniProt Q9NSA1 29-209, looked up)
chain: HPIPDSSPLLQFGGQVRQRYLYTDDAQQTEAHLEIREDGTVGGAADQSPESLLQLKALKPGVIQILGVKTSRFLCQRPDGALYGSLHFDPEACSFRELLLEDGYNVYQSEAHGLPLHLPGNKSPHRDPAPRGPARFLPLPGLPPALPEPPGILAPQPPDVGSSDPLSMVGPSQGRSPSYAS
notes: also called fibroblast growth factor 21; native FGF21; source: E. coli OrigamiB (DE3), purified (Ni-NTA, SUMO protease digestion, Q-Sepharose)
As for B1, the figures for the IC50 in assay [1] and in assay [2] were 1220 nM and 123 nM, respectively.

The values above are taken from PMC6026317, “Molecular elements in FGF19 and FGF21 defining KLB/FGFR activity and specificity” (Molecular Metabolism, 2018).
